{"source": "paper PMC4218953", "key": {"[1]": {"molecular_target": "double-labelled SecYEG(Bpy/Trp) (E. coli) (UniProt P0AGA2)"}, "[2]": {"molecular_target": "SecYEG translocon embedded in nanodiscs, labelled for FRET titrations (E. coli) (UniProt P0AGA2)", "assay": "FRET or BRET; titration of nanodisc-embedded translocon with vacant ribosomes or Lep75-RNC (Supplementary Fig. 3); FRET between labels in the translocon and the ribosome is told for panel c; buffer A (20 mM HEPES pH 7.5, 70 mM NH4Cl, 30 mM KCl, 7 mM MgCl2, 10% glycerol), 25 °C"}, "[3]": {"molecular_target": "double-labelled SecYEG(Bpy/Trp) (E. coli) (UniProt P0AGA2)", "remark": "listed apart in the source"}, "[4]": {"molecular_target": "SecYEG translocon embedded in nanodiscs, labelled for FRET titrations (E. coli) (UniProt P0AGA2)", "assay": "FRET or BRET; titration monitoring FRET between labels in the translocon and the ribosome, at the lower temperature (4 °C)"}}, "note": "pKd: −log10 of the molar value."}
{"substance": "DsbA100-RNC (from UniProt P0AEG4 1-208) (complex)", "values": [{"measurement": "increase of Bpy fluorescence of nanodisc-embedded SecYEG(Bpy/Trp) (50 nM) on addition of DsbA100-RNC (200 nM), 25 °C", "setting": "[1]", "result": "> 20", "unit": "%"}]}
{"substance": "Lep75-RNC (ribosome-nascent-chain complex carrying 75 N-terminal amino acids of leader peptidase) (from UniProt P00803 1-75)", "values": [{"measurement": "pKd", "setting": "[2]", "result": 8.00}, {"measurement": "increase of Bpy fluorescence of nanodisc-embedded SecYEG(Bpy/Trp) (50 nM) on addition of Lep75-RNC (200 nM), 25 °C (loss of PET quenching, lateral gate opening)", "setting": "[3]", "result": 30, "unit": "%"}, {"measurement": "net increase of Bpy fluorescence of SecYEG(Bpy/Trp) on Lep75-RNC binding, after the change seen with single-labelled SecYEG(Bpy), 25 °C", "setting": "[3]", "result": 25, "unit": "%"}]}
{"substance": "TolB100-RNC (from UniProt P0A855 1-430) (complex)", "values": [{"measurement": "increase of Bpy fluorescence of nanodisc-embedded SecYEG(Bpy/Trp) (50 nM) on addition of TolB100-RNC (200 nM), 25 °C", "setting": "[1]", "result": "> 20", "unit": "%"}]}
{"substance": "vacant 70S ribosomes from E. coli MRE600 (complex)", "values": [{"measurement": "pKd", "setting": "[2]", "result": 7.70}, {"measurement": "increase of Bpy fluorescence of nanodisc-embedded SecYEG(Bpy/Trp) (50 nM) on addition of vacant 70S ribosomes (200 nM), 25 °C (loss of PET quenching, lateral gate opening)", "setting": "[3]", "result": 15, "unit": "%"}, {"measurement": "increase of Bpy fluorescence of SecYEG(Bpy/Trp) solubilised with detergent (0.03% DDM, no nanodisc) on addition of non-translating ribosomes, 25 °C", "setting": "[1]", "result": 15, "unit": "%"}, {"measurement": "pKd", "setting": "[4]", "result": 8.00}]}
